Non-standard residues stand in square brackets, D forms with d. No end group written: not given here. *: point of attachment. αGalNAc = CC(=O)N[C@@H]1[C@@H](O)[C@@H](O)[C@@H](CO)O[C@@H]1*; Tyr(3,5-I2) = N[C@@H](Cc1cc(I)c(O)c(I)c1)C(=O)O; Ahx = NCCCCCC(=O)O
Molecular target: T1, leptin receptor (ObR) (human, UniProt P48357 22-1165)
T1 sequence: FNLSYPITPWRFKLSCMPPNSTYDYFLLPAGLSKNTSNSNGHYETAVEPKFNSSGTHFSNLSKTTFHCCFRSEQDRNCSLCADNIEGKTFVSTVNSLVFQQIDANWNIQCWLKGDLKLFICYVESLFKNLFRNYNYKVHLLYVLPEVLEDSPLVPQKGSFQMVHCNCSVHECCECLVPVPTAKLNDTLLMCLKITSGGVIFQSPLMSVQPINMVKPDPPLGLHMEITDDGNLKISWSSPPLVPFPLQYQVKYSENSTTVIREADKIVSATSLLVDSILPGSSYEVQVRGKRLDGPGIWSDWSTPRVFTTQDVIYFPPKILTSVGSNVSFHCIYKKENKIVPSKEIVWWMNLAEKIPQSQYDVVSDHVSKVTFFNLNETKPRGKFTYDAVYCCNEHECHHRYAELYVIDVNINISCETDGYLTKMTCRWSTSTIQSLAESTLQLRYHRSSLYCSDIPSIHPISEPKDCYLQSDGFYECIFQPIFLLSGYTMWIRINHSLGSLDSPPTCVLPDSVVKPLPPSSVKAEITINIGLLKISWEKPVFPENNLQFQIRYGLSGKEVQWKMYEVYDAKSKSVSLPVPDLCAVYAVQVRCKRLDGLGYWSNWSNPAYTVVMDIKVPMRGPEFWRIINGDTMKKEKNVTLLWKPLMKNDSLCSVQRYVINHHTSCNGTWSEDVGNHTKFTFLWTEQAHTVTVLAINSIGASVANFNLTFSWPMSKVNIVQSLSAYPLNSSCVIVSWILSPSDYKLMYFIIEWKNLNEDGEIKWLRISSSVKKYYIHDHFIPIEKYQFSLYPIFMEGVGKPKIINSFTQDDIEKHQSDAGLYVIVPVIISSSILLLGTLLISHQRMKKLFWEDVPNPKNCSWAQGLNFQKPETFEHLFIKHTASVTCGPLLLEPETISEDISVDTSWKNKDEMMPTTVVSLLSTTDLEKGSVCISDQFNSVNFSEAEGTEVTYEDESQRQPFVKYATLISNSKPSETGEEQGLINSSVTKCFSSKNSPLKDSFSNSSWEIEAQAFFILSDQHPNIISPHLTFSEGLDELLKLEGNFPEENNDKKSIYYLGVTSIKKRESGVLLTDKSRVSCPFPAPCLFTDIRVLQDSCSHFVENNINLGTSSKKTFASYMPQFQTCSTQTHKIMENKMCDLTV
Assay: cell-based or functional assay

EC50 (nM), proliferation of ObR-positive LN229 glioblastoma cells, no exogenous leptin: < 1 nM | IC50 (nM), inhibition of leptin-induced (12 nM leptin) proliferation of ObR-positive LN229 cells: 100 nM
Binder: [Tyr(3,5-I2)]ST(αGalNAc)EVVALSR[Ahx]-NH2 [Compound (1) [Tyr(I2)-Ser-Thr(α-GalNAc)-Glu-Val-Val-Ala-Leu-Ser-Arg-AcpNH2]]

Source: patent US20120108504A1 (TEMPLE UNIVERSITY OF THE COMMONWEALTH SYSTEM OF HIGHER …, published 2012)
